Consider four molecules from patent publication US20240025988A1 (GlaxoSmithKline, published 2024).

Substitutions are numbered along the chain they refer to. “And” between values parts separate entries of the source, which are not always exact repeats. Equal entries are not always repeated. A value given as a limit tells only on which side of the number the result lay.

Experiment [1] concerns the target T1, human IL-7 (human, UniProt P13232 26-177).
T1 sequence: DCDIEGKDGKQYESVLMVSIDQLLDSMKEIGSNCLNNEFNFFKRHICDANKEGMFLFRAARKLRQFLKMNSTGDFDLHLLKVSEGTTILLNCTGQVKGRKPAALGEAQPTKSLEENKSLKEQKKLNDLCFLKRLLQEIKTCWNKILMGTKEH
The experiment is described as follows: cell-based or functional assay.

Experiment [2] deals with T1, human IL-7. Description: cell-based or functional assay. This is another data set of the same source.
In experiment [3] the target is T1, human IL-7. Description: SPR, Biacore 8K, 25 °C, IL-7 as analyte. An excerpt: (§1) (Table 5). […] (Table 5).
(In general: SPR reads the build-up and loss of mass on a sensor chip optically.)

Experiment [4] addresses T2, cynomolgus monkey IL-7 (cynomolgus monkey, UniProt A0A2K5W745 26-178).
T2 construct: also called cynoIL-7; cynomolgus IL-7
T2 sequence: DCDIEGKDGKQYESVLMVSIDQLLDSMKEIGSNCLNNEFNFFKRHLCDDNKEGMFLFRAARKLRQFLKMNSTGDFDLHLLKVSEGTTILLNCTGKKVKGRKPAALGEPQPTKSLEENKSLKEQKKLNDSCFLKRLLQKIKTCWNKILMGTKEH
The experiment is described as follows: SPR, Biacore 8K, 25 °C, IL-7 as analyte.
Excerpt: as §1

Experiment [5] deals with T1, human IL-7. The experiment is described as follows: SPR, Biacore 8K, 37 °C, IL-7 as analyte.
Excerpt: as §1

Experiment [6] has as its target T2, cynomolgus monkey IL-7. Description: SPR, Biacore 8K, 37 °C, IL-7 as analyte.
Excerpt: as §1

Experiment [7] deals with T2, cynomolgus monkey IL-7. The experiment is described as follows: SPR, Biacore 8K, 37 °C (text value; Table 5 prints 73); 37 C; value of the running text.
Excerpt: as §1

The target in experiment [8] is T1, human IL-7. The experiment is described as follows: SPR, Biacore 8K, 37 °C; geometric mean KD from all experiments, with 85% confidence interval in brackets.

B1: DRSPAI-L7B (antibody, human IgG1, kappa, V domains shown)
VH: QVQLVESGGGVVQPGRSLRLSCAASGFTFSSYGVHWVRQAPGKGLEWLAAIWTGGSTDYNSAFSSRFTISRDNSKNTLYLQMNSLRAEDTAVYYCARNGYGESFAYWGQGTLVTVSS
VL: DIQMTQSPSSLSASVGDRVTITCKASESLDHDGDSYINWYQQKPGKAPKLLIYMGSNVEFGVPARFSGSGSGTDFTLTISSLQPEDFATYYCQQSNVDPLTFGGGTKVEIKR
notes: Human IgG1 kappa; also called DRSPAI-171B; DRSPAI-17B
As to B1, in the experiment with human IL-7 [1], the “IL-6 secretion by CD4+ Tmem cells, IC50” value came to 0.202 nM; the “IL-10 secretion by PBMC (rhIL-7 and anti-CD3), mean IC50” value worked out at 0.207 nM; the “TNFα secretion by CD4+ Tmem cells, IC50” value is 0.127 nM. Moreover, in the experiment with human IL-7 [2], the “IFN-γ production by PBMC, IC50 (IL-7 10 ng/ml, anti-CD3)” value is 196 pM and 29.4 ng/ml; the “IL-17 production by Tmem, IC50 (IL-7 20 ng/ml)” value is 40.5 ng/ml and 270 pM; the “Teff and Tmem proliferation (CD4+), IC50 (IL-7 10 ng/ml)” value was 79.5 ng/ml and 530 pM; the “Teff and Tmem proliferation (CD4+), IC50 (IL-7 20 ng/ml)” value was 78 ng/ml and 520 pM. For the same molecule, in the experiment with human IL-7 [2], the “pSTAT5 in CCRF-CEM cells, IC50 (IL-7 0.034 ng/ml, 2 pM)” value is < 0.15 ng/ml and < 1 pM; the “pSTAT5 in whole blood (CD4+ T cells), median IC50 (IL-7 1 ng/ml)” value is 5.1 ng/ml and 34 pM. Also, in the experiment with human IL-7 [3], the Kd is 0.031 nM and 0.034 nM; the koff was 0.000206 s⁻¹ and 0.000158 s⁻¹; the kon was 6.49e+06 M⁻¹ s⁻¹ and 4.65e+06 M⁻¹ s⁻¹. Also, in the experiment with cynomolgus monkey IL-7 [4], the Kd was determined as 0.053 nM, the koff is 0.00017 s⁻¹ and the kon was found to be 3.17e+06 M⁻¹ s⁻¹. Also, in the experiment with human IL-7 [5], the Kd is 0.069 nM and 0.046 nM and 0.075 nM and 0.087 nM; the koff is 0.000568 s⁻¹ and 0.000678 s⁻¹ and 0.000826 s⁻¹ and 0.000515 s⁻¹; the kon was 8.28e+06 M⁻¹ s⁻¹ and 1.47e+07 M⁻¹ s⁻¹ and 1.1e+07 M⁻¹ s⁻¹ and 5.9e+06 M⁻¹ s⁻¹. Moreover, in the experiment with cynomolgus monkey IL-7 [6], the Kd is 0.073 nM, the koff was 0.000462 s⁻¹ and the kon worked out at 6.17e+06 M⁻¹ s⁻¹. Further, the Kd with cynomolgus monkey IL-7 [7] is approximately 0.075 nM. Moreover, binding with human IL-7 [8] was characterised by a dissociation constant (Kd) of 0.0674 nM.

B2: A1290 (antibody, human IgG1, kappa, V domains shown)
VH: B1 VH with V34L, S61A, S64I
VL: B1 VL with E27Q, L29V, H31D, Y36F, M54V, G55A, V58L, F60S, V97E
With B2, the “pSTAT5 in whole blood (CD4+ T cells), median IC50” value in the experiment with human IL-7 [1] was 18 pM and 0.00275 µg/ml.

B3: A1294 (antibody, human IgG1, kappa, V domains shown)
VH: B1 VH with S31T, T53S, S61V
VL: B1 VL with E27Q, L29V, H31D, I37M, G55A, V58L, F60S, V97E
On to B3, for which the “pSTAT5 in whole blood (CD4+ T cells), median IC50” value with human IL-7 [1] was 76 pM and 0.0114 µg/ml.

B4: A1291 (antibody, human IgG1, kappa, V domains shown)
VH: B1 VH with V34L, S61A, A62E
VL: B1 VL with E27H, L29V, H31D, I37M, G55A, V58L, F60S, V97E
For the molecule B4, the “pSTAT5 in whole blood (CD4+ T cells), median IC50” value with human IL-7 [1] is 16 pM and 0.00246 µg/ml.

One may read the Kd as the equilibrium constant for the complex coming apart. As a reminder, the koff is the first-order rate constant of dissociation. One may read the kon as the rate constant with which the complex forms.
